Data as given in paper PMC7387800.

Tests used:
[1] = molecular target: VqmA-FLAG (Vibrio cholerae)
[2] = molecular target: VqmA-FLAG (Vibrio cholerae); test: non-reducing SDS-PAGE with anti-FLAG immunoblot (disulfide-linked dimer); cells treated 1 h with 25 μM DPO, in the presence or absence of O2; lysate boiled in SDS-PAGE buffer without BME
[3] = system: 6xHis-VqmA C134A (Vibrio cholerae C6706?); test: EMSA
[4] = system: 6xHis-VqmA WT (Vibrio cholerae C6706?); test: EMSA

Row | Substance | vqmR-lacZ reporter activity in ΔvqmA Δtdh V. cholerae carrying pvqmA-FLAG, with 25 μM DPO, with against without DTT [1] [fold] | percent of Holo-VqmA with the intermolecular C134-C134 disulfide bond [2] [%] | stoichiometry N [2] | binding signal (fold reduction vs DTT-treated P2) [3] | binding signal (fold more potent than diamide-treated P2) [4]
1 | VqmA-FLAG (natural protein) | 6 | 40 to 50 | 2 | – | –
2 | vqmR promoter DNA (PvqmR) | – | – | – | 4 | 2
